Key:
[1] = molecular target: T1, VHL (von Hippel-Lindau tumor suppressor protein), full-length (Homo sapiens (Human), UniProt P40337 1-213, 35S-methionine labeled in the in vitro assays); assay: co-immunoprecipitation with anti-FLAG, in vitro translated proteins
T1 construct: also called 35S-labeled VHL; 35S-labeled full-length VHL

[2] = molecular target: 35S-labeled, in vitro translated full length HIF-1 alpha (human, UniProt Q16665 1-826, 35S-methionine labeled); assay: co-immunoprecipitation with anti-GAL4, in vitro translated proteins
[3] = molecular target: T1, VHL (von Hippel-Lindau tumor suppressor …); assay: as above

B1: FLAG-tagged mutant N-TAD of HIF-1 alpha (PYI triplet substituted with three aspartic acid residues) (other, not shown: small tags and cut ends)
chain: KLELVEKLFAEDTEAKNPFSTQDTDLDLEMLADDDPMDDDFQLRSFDQLSPLES
notes: also called mt N-TAD; PYI mutant N-TAD
B1: no binding [1].

B2: GAL4/VHL 114-154 fragment (other)
chain: MKLLSSIEQACDICRLKKLKCSKEKPKCAKCLKNNWECRYSPKTKRSPLTRAHLTEVESRLERLEQLFLLIFPREDLDMILKMDSLQDIKALLTGLFVQDNVNKDAVTDRLASVETDMPLTLRQHRISATSSSEESSNKGQRQLTVSGHLWLFRDAGTHDGLLVNQTELFVPSLNVDGQPIFANITLP
B2: no binding [2].

B3: GAL4/HIF-1 alpha 778-826 (other)
chain: MKLLSSIEQACDICRLKKLKCSKEKPKCAKCLKNNWECRYSPKTKRSPLTRAHLTEVESRLERLEQLFLLIFPREDLDMILKMDSLQDIKALLTGLFVQDNVNKDAVTDRLASVETDMPLTLRQHRISATSSSEESSNKGQRQLTVSLACRLLGQSMDESGLPQLTSYDCEVNAPIQGSRNLLQGEELLRALDQVN
B3: no binding [3].
